Data as given in patent publication US6660836.

How the values were obtained:
[1] = target: Gαq-glutathione S-transferase fusion protein; assay: hydroxyl radical alkyl 1H/2H exchange footprinting normalised to internal reference 2,4-DNP-Leu; 50 µM GST-Gaq/100 µM CTP, 200 µM OH radical
[2] = target: Gαq-glutathione S-transferase fusion protein; assay: hydroxyl radical alkyl 1H/2H exchange footprinting normalised to internal reference 2,4-DNP-Leu; 30 µM GST-Gaq/15.6 µM CTP, 400 µM OH radical
[3] = target: Gαq-glutathione S-transferase fusion protein; assay: hydroxyl radical alkyl 1H/2H exchange footprinting, LC-MS of DNS-amino acids; 50 µM GST-Gaq/100 µM CTP, 200 µM OH radical
[4] = target: Gαq-glutathione S-transferase fusion protein; assay: hydroxyl radical alkyl 1H/2H exchange footprinting normalised to internal reference 2,4-DNP-Leu; 50 µM GST-Gaq/100 µM CTP, 400 µM OH radical
[5] = target: Gαq-glutathione S-transferase fusion protein; assay: hydroxyl radical alkyl 1H/2H exchange footprinting, LC-MS of DNS-amino acids; 30 µM GST-Gaq/15.6 µM CTP, 400 µM OH radical
[6] = target: Gαq-glutathione S-transferase fusion protein; assay: hydroxyl radical alkyl 1H/2H exchange footprinting, LC-MS of DNS-amino acids; 50 µM GST-Gaq/100 µM CTP, 400 µM OH radical

Protection Factor (residue Ala) [1]: 2 | Protection Factor (residue Asp) [1]: -0.77 | Protection Factor (residue Glu) [1]: 0.51 | Protection Factor (residue Gly) [1]: 0.32 | Protection Factor (residue Ile) [1]: 0.62 | Protection Factor (residue Leu) [1]: 0.59 | Protection Factor (residue Lys) [1]: 0.58 | Protection Factor (residue Ser) [1]: 0 | Protection Factor (residue Val) [1]: 0.61 | Protection Factor (residue Ala) [2]: 0.24 | Protection Factor (residue Asp) [2]: 0.16 | Protection Factor (residue Glu) [2]: 0.37 | Protection Factor (residue Gly) [2]: 0.3 | Protection Factor (residue Ile) [2]: 0.41 | Protection Factor (residue Leu) [2]: 0.39 | Protection Factor (residue Lys) [2]: 0.39 | Protection Factor (residue Ser) [2]: -0.35 | Protection Factor (residue Val) [2]: 0.38 | Δ Isotope Ratio free/Δ Isotope Ratio bound (residue Ala) [3]: 4.5 | Δ Isotope Ratio free/Δ Isotope Ratio bound (residue Asp) [3]: -2 | Δ Isotope Ratio free/Δ Isotope Ratio bound (residue Glu) [3]: 1.8 | Δ Isotope Ratio free/Δ Isotope Ratio bound (residue Gly) [3]: 1.2 | Δ Isotope Ratio free/Δ Isotope Ratio bound (residue Ile) [3]: 2.5 | Δ Isotope Ratio free/Δ Isotope Ratio bound (residue Leu) [3]: 2.3 | Δ Isotope Ratio free/Δ Isotope Ratio bound (residue Lys, diDNS-Lys derivative) [3]: 2.4 | Δ Isotope Ratio free/Δ Isotope Ratio bound (residue Ser) [3]: 0 | Δ Isotope Ratio free/Δ Isotope Ratio bound (residue Val) [3]: 2.4 | Protection Factor (residue Ala) [4]: 7.2 | Protection Factor (residue Asp) [4]: -1.5 | Protection Factor (residue Glu) [4]: 6.3 | Protection Factor (residue Gly) [4]: 0 | Protection Factor (residue Ile) [4]: 2.2 | Protection Factor (residue Leu) [4]: 2.4 | Protection Factor (residue Lys) [4]: 2.3 | Protection Factor (residue Ser) [4]: 0 | Protection Factor (residue Val) [4]: 2 | Δ Isotope Ratio free/Δ Isotope Ratio bound (residue Ala) [5]: 0.8 | Δ Isotope Ratio free/Δ Isotope Ratio bound (residue Asp) [5]: 0.53 | Δ Isotope Ratio free/Δ Isotope Ratio bound (residue Glu) [5]: 1.2 | Δ Isotope Ratio free/Δ Isotope Ratio bound (residue Gly) [5]: 0.99 | Δ Isotope Ratio free/Δ Isotope Ratio bound (residue Ile) [5]: 1.4 | Δ Isotope Ratio free/Δ Isotope Ratio bound (residue Leu) [5]: 1.3 | Δ Isotope Ratio free/Δ Isotope Ratio bound (residue Lys, diDNS-Lys derivative) [5]: 1.3 | Δ Isotope Ratio free/Δ Isotope Ratio bound (residue Ser) [5]: -1.2 | Δ Isotope Ratio free/Δ Isotope Ratio bound (residue Val) [5]: 1.3 | Δ Isotope Ratio free/Δ Isotope Ratio bound (residue Ala) [6]: 6.3 | Δ Isotope Ratio free/Δ Isotope Ratio bound (residue Asp) [6]: -2.5 | Δ Isotope Ratio free/Δ Isotope Ratio bound (residue Glu) [6]: 6.5 | Δ Isotope Ratio free/Δ Isotope Ratio bound (residue Gly) [6]: 0.5 | Δ Isotope Ratio free/Δ Isotope Ratio bound (residue Ile) [6]: 2.9 | Δ Isotope Ratio free/Δ Isotope Ratio bound (residue Leu) [6]: 3.1 | Δ Isotope Ratio free/Δ Isotope Ratio bound (residue Lys, diDNS-Lys derivative) [6]: 3.1 | Δ Isotope Ratio free/Δ Isotope Ratio bound (residue Ser) [6]: 0 | Δ Isotope Ratio free/Δ Isotope Ratio bound (residue Val) [6]: 2.7
Binder: SNEQKACKVLGI [C-terminal peptide (…) of the third intracellular loop of the 5-hydroxytryptamine2A receptor]
